{"source": "patent US20050260637A1", "about": "“Drug screening” (priority 2004, published 2005)", "biological_target": "T1, human RNR (Homo sapiens, UniProt P23921)", "T1 sequence (P23921 1-792)": "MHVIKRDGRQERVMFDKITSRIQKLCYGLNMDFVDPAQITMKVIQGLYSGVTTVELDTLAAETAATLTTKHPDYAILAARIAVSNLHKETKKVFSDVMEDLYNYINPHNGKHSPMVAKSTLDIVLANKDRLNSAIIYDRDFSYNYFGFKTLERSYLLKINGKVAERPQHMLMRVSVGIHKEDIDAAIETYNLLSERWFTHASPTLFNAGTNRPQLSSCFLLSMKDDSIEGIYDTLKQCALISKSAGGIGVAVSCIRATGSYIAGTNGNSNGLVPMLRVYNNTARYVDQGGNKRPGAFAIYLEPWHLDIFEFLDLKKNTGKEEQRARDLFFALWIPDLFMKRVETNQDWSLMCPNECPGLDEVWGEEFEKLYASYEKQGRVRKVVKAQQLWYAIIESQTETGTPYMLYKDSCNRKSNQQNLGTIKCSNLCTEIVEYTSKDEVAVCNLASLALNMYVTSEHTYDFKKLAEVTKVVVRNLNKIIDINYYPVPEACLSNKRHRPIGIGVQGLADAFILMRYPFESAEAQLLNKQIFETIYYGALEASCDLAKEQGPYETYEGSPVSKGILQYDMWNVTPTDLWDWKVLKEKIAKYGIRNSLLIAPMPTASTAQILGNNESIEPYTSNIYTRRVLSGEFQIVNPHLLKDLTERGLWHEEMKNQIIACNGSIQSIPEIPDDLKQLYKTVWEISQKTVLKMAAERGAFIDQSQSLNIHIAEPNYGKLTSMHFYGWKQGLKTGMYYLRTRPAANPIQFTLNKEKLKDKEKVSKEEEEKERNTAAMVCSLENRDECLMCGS", "test": "C-terminal RRM2 peptide added to the enzyme in vitro", "format": "biochemical", "conditions": "added in vitro at a ratio of 10:1 (peptide:enzyme)", "excerpt": "Also within the scope of this invention is a pharmaceutical composition that contains (1) an active agent, e.g., one of the above-descried antibodies, RNR mutant subunits, RNAi agents, or compounds identified to be RNR inhibitors; and (2) a pharmaceutically acceptable carrier and. Other active agents that can be used include an antisense oligonucleotide and a peptide or polypeptide containing an amino acid sequence at the C-terminus of RRM2. […] It was further observed that a truncated form of the M2 subunit, lacking these 7 amino acids at the C-terminus, fails to form a complex with the corresponding large subunit M1. […] Such peptides or polypeptides can be generated and used according to the methods described above or any other methods well known in the art. The efficacy of the pharmaceutical composition for treating a cell proliferation-associated disorder can be preliminarily evaluated in vitro. For in vivo studies, the composition can be injected into an animal and its therapeutic effects are then accessed.", "data": [{"substance": "FTLDADF [7-amino acid peptide (FTLDADF) at the C-terminus of RRM2]", "values": [{"measurement": "Suppression of human RNR activity", "value": "dramatically suppress the human RNR activity"}]}]}
